Test [1] concerns the target T1, human MerTK-his protein (human, UniProt Q12866 21-505).
T1 construct: extracellular domain; also called hMerTK-His; human MerTK protein
T1 sequence (looked up): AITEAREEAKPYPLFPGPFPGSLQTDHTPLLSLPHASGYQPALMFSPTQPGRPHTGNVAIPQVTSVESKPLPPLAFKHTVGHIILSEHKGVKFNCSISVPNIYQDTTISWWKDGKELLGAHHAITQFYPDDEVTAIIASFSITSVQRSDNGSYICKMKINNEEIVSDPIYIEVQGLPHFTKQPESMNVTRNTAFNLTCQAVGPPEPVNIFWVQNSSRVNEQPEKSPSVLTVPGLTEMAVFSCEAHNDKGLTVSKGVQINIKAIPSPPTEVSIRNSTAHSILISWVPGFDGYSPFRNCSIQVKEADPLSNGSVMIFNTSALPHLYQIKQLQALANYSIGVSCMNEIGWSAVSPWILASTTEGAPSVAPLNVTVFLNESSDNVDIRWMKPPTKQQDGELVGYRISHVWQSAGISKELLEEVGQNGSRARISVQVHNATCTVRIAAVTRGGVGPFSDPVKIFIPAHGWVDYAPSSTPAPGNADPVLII
Put plainly: ELISA, plate coated with human MerTK-his, OD 450nm. The procedure: To evaluate the binding activity, the chimeric mAbs were subjected to ELISA test. Briefly, 96-well plates were coated with human or cyno MerTK-his protein at 2 μg/mL in PBS, 100 μL/well at 4° C. overnight, then blocked with 150 μL/well of 1% BSA. Five-fold dilutions of MerTK antibodies starting from 20 nM were added to each well and incubated for 1 hour at room temperature. The plates were washed with PBS/Tween-20 and then incubated with goat anti-human IgG Fe antibody conjugated with Horse Radish Peroxidase (HRP) for 30 minutes (mins) at room temperature. After washing, the plates were developed with TMB substrate and subsequent stop solution was added to complete the reaction. The signal from each well was read by spectrophotometer at OD 450 nm.
To evaluate the antigen binding activity, the humanized antibodies were subjected to ELISA test as described before.
Background: An ELISA detects its analyte on a solid surface through an enzyme-linked reagent.

For test [2], the target named is T2, human MerTK expressed on cells (human, UniProt Q12866 21-999).
T2 construct: whole, on cells; also called CHO-K1-hMerTK; CHO-K1-MerTK
T2 sequence (looked up): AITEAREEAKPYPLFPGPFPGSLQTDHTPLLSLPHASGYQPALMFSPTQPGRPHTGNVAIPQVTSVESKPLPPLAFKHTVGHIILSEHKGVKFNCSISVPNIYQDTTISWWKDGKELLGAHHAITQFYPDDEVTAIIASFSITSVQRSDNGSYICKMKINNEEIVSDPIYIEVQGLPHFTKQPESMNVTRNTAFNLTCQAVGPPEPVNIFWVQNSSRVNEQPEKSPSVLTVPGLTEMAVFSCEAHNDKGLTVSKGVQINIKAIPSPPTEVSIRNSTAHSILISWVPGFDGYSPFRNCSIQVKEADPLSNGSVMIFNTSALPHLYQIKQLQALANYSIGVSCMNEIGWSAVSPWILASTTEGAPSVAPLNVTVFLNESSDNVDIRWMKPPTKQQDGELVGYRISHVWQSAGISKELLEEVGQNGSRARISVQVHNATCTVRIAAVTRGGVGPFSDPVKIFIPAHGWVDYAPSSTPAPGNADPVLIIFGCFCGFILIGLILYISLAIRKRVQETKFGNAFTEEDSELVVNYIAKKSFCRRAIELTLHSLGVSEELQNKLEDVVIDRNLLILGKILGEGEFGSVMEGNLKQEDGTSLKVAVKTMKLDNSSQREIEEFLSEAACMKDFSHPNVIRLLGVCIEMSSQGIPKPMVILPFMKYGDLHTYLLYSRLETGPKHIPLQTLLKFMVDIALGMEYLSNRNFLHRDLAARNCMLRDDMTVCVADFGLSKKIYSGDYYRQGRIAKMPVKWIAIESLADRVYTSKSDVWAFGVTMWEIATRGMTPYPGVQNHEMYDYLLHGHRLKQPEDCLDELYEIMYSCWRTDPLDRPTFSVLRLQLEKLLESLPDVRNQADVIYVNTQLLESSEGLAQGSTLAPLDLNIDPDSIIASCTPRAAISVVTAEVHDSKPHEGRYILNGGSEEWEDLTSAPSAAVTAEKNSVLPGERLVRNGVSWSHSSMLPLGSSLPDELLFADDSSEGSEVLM
The test is described as follows: FACS on CHO-K1 cells overexpressing human MerTK, MFI (PE). The procedure:
To evaluate the binding property to the antigen expressed on the cells, the chimeric monoclonal antibodies were analyzed for their binding to human MerTK overexpressed on CHO-K1 cells by FACS. Briefly, human MerTK overexpressing CHO-K1 (CHO-K1-MerTK) cells were firstly incubated with 5-fold serially diluted mAbs starting at 20 nM at 4° C. for 1 hour. After washing with FACS buffer, the PE conjugated anti-human IgG-Fc secondary antibody was added to each well and incubated at 4° C., for 30 mins. The mean fluorescence intensity (MFI) of PE were evaluated by QuantAnalyzer 16.
To evaluate the binding property to the antigen expressed on the cells, the humanized antibodies were analyzed by FACS as described before.

B1: 10F7D9 Hu-2 (antibody, V domains shown)
VH: QIQLVQSGSELKKPGASVKVSCKASGYTFTNYGMNWVRQAPGQGLEWMGWINTYTGEPTYADDFKGRFVFSLDTSVSTAYLQISSLKAEDTAVYYCATYGHYAWFAYWGQGTLVTVSS
VL: EIVLTQSPDFQSVTPKEKVTITCRASSSVSYMHWYQQKPDQSPKLLIKATSNLASGVPSRFSGSGSGTDFTLTINSLEAEDAATYYCQQWGTKPLTFGQGTKLEIK
notes: also called Hu-2 of 10F7D9
Take B1: the EC50 (as a rule, the midpoint of the concentration-response curve) turned out to be 0.035 nM in test [1] and 0.45 nM in test [2].

B2: 10F7D9 Hu-6 (antibody, V domains shown)
VH: QVQLVQSGSELKKPGASVKISCKASGYTFTNYGMNWVRQAPGQGLEWMGWINTYTGEPTYADDFKGRFVFSLDTSVSTAYLQINNLKAEDTAVYFCATYGHYAWFAYWGQGTLVTVSS
VL: EIVLTQSPDFQSVTPKEKVTITCRASSSVSYMHWYQQKPDQSPKLLIKATSNLASGVPSRFSGSGSGTDFTLTINSLEAEDAATYYCQQWGTKPLTFGQGTKLEIK
notes: also called Hu-6 of 10F7D9
On to B2, for which the EC50 in test [1] was found to be 0.033 nM; in test [2] it was 0.45 nM.

B3: 10F7D9 Hu-3 (antibody, V domains shown)
VH: QIQLVQSGSELKKPGASVKVSCKASGYTFTNYGMNWVRQAPGQGLEWMGWINTYTGEPTYADDFKGRFVFSLDTSVSTAYLQISSLKAEDTAVYFCATYGHYAWFAYWGQGTLVTVSS
VL: EIVLTQSPDFQSVTPKEKVTITCRASSSVSYMHWYQQKPDQSPKLLIKATSNLASGVPSRFSGSGSGTDFTLTINSLEAEDAATYYCQQWGTKPLTFGQGTKLEIK
notes: also called Hu-3 of 10F7D9
For the molecule B3, the concentration for a half-maximal effect (EC50) in test [1] was 0.034 nM; in test [2], 1.2 nM.

B4: 10F7D9 Hu-8 (antibody, V domains shown)
VH: QIQLVQSGSELKKPGASVKVSCKASGYTFTNYGMNWVRQAPGQGLEWMGWINTYTGEPTYADDFKGRFVFSLDTSVSTAYLQISSLKAEDTAVYYCATYGHYAWFAYWGQGTLVTVSS
VL: EIVLTQSPDFQSVTPKEKVTITCRASSSVSYMHWYQQKPDQSPKPWIKATSNLASGVPSRFSGSGSGTDFTLTINSLEAEDAATYYCQQWGTKPLTFGQGTKLEIK
notes: also called Hu-8 of 10F7D9
Turning to B4, the EC50 in test [1] was 0.0024 nM; in test [2], 0.1 nM.

B5: 10F7D9 Hu-4 (antibody, V domains shown)
VH: QIQLVQSGSELKKPGASVKVSCKASGYTFTNYGMNWVRQAPGQGLKWMGWINTYTGEPTYADDFKGRFVFSLDTSVSTAYLQISSLKAEDTAVYFCATYGHYAWFAYWGQGTLVTVSS
VL: EIVLTQSPDFQSVTPKEKVTITCRASSSVSYMHWYQQKPDQSPKLLIKATSNLASGVPSRFSGSGSGTDFTLTINSLEAEDAATYYCQQWGTKPLTFGQGTKLEIK
notes: also called Hu-4 of 10F7D9
For B5, the EC50 in test [1] was 0.027 nM; in test [2], 0.47 nM.

B6: 10F7D9 Hu-1 (antibody, V domains shown)
VH: QVQLVQSGSELKKPGASVKVSCKASGYTFTNYGMNWVRQAPGQGLEWMGWINTYTGEPTYADDFKGRFVFSLDTSVSTAYLQISSLKAEDTAVYYCARYGHYAWFAYWGQGTLVTVSS
VL: EIVLTQSPDFQSVTPKEKVTITCRASSSVSYMHWYQQKPDQSPKLLIKATSNLASGVPSRFSGSGSGTDFTLTINSLEAEDAATYYCQQWGTKPLTFGQGTKLEIK
notes: also called Hu-1 of 10F7D9
Turning to B6, the results for the 50% effective concentration (EC50) in test [1] and in test [2] were 0.028 nM and 0.29 nM, respectively.

B7: 10F7D9 Hu-14 (antibody, V domains shown)
VH: QIQLVQSGSELKKPGASVKVSCKASGYTFTNYGMNWVRQAPGQGLEWMGWINTYTGEPTYADDFKGRFVFSLDTSVSTAYLQISSLKAEDTAVYYCATYGHYAWFAYWGQGTLVTVSS
VL: EIVLTQSPDFQSVTPKEKVTITCRASSSVSYMHWYQQKPDQSPKPWIYATSNLASGVPSRFSGSGSGTDFTLTINSLEAEDAATYFCQQWGTKPLTFGQGTKLEIK
notes: also called Hu-14 of 10F7D9
As to B7, the concentration giving a half-maximal response (EC50) stood at 0.027 nM in test [1] and 0.15 nM in test [2].

The values above are taken from US20260028422A1 (CONCEPT TO MEDICINE BIOTECH, published 2026).
